Experimental data taken from the nanobody polyreactivity screen of Harvey et al. (2022).

Test: yeast display, Sf9 membrane polyspecificity reagent, FACS + sequencing; frameworks hold sequencing errors
Summary of the method: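 Genes from sorted yeast were amplified by colony PCR, read by MiSeq 2 × 250 sequencing and filtered on CDR length. These cells carried a synthetic nanobody library in Saccharomyces cerevisiae BJ5465 and were sorted by FACS into low and high (top ~1%) gates on anti-HA and streptavidin fluorescence. Polyreactivity is labelled according to the gate of origin.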

| Sequence | polyreactivity (PSR sort gate) |
| --- | --- |
| QVQLVESGGGLVQAGGSHRLSCAASGSIFNRYAMGWYRQAPGKERELVAAITAGGSSTYYADSVKGRFTISRDNAKNTVYLQMNSLKPEDTAVYYCNAVWWHPKDYDYWGQGTQVTVSS | low polyreactivity |
| QVQLVESGGGLVQAGGSLRLSCAASGNTFFTYAMGWYRQAPGQERELVAVITSVGSTNYADSVKGLFTISRDNAKNTVYLQMNSLKPEDTAVYYCAAKGYRVYRYYRGRTYDYWGQGSQVTVSS | high polyreactivity |
| QVQLVESGGGLVQAGGSLRLICAASGSTFGIYAMGWFRQAPGKERELVAAISWRGGRTYYADSVKGSFTISRDNAKNNVYLQRNSLKPEDTAVYNCSADYRYLWEGYDYWGQGTQVTVSS | low polyreactivity |
| QVQQQESGGVLVHAGGSLRLSCAASGTISPLPAMGWYRQAPGKEREFVAGIDTGAISNYADSVKGRFTISRDNAKNTVYLQMNSLKPEDTAVYYCAVFPAAYEYYVRYYTYWGQGTQVTVSS | low polyreactivity |
| QVQLVESGGGIVQAGGSLRLSCAASGRIFVDYDMGWYRQATGKERELVATISSGGSTNYADSVKGRFTISRDNAKNTVYLQMNSLKPEDSAVYHCNKDYHVRYYYWGQGTQVTVSS | low polyreactivity |
| QVKLGESGGGLVQAGGSLLLSCAASGRTFWYYTMGWYRQAPGKERELVASITAGSGTTYYADSVKGRFTISRHNAKNTVYFQMYSLKPEDSAGYYCSSKNTPSFFYYDRYDYWGHGTQVTVSS | low polyreactivity |
| QVQLVESGGGLVQAGGSLRLSCAASGSIFPRYAMGWYRQAPGKERELVAAITGSGSSTYYADSVKGRFTISRDNAKNTVYLQMNSLKPEDTAVYYCAARKARPPFPHPFDYYWGQGTQVTVSS | low polyreactivity |
| KVQLVESGGGLVQAGGSLRLSCAASGLIFYDNMGWYRQAPGKERELVAAISSSGGSTSYADSVKGRFTISRDNAKITVYLQMNSLKPEDTAVYYFAADSYPAYLGFVGFDYWGQGTQVTVSS | low polyreactivity |
| QVQLVESGGGLVHAGGSLRLTCAASGRTYRNGMGWYRQAPGKERELVAAISVSGTRTYYADSVKGRFTISRDNAKNTVYLQMNSLKPEDTAVYYCNADLSPTADDELDYRLVRDDYWGQGTQVTVSS | low polyreactivity |
| QDQLVESGGGLVQAGGSLRLSCAASGSMLVNNAMGCYRQAPGKERELVAASSKSTGRTYYADSVKGRFTISRDNAKNTVYLQMNSLKPVDTAVFYCYALTHPDKFVYWGQGTQVTVSS | high polyreactivity |
| QVQLVESGGGLVQAGGSLRLSCAASGRILYRNTMGWYRQAPGKERELVAAISRSGGSTYYADSVKGRFTISRDNAKNTVYLQMNSLKPEDTAVYYCAKSVVARGASTYIGGFYYWGQGTQVTVSS | high polyreactivity |
| QVQLVESGGGLVQAGGSLRLSCAASGFIFGTYAMGWYRQAPGKERELVAAISVGGGSTYYADSVKGRFTISRDTAKNTVYLQMNSLKPEDTAVYYCAAVQLYQKHQITYVAHEYWGQGTQVTVSS | low polyreactivity |
| QVQLVESGGGLVQAGGSLRLSCAASGSTILKYAMGWYRQAPGKERELVAAITSDGTSYADSVKGRFTISRDNAKNTVYLQMNSLKPEDTAVYYCAIDYRHPTFDYWGQGTQVTVSS | low polyreactivity |
| QVQLVESGGGLVQAGGSLRLSCAASGNTLTPYTMGWYRQAPGKERELVAAINRSGGSTYYADSVKGRVTISRDNGKNTVYLQMNSLKPEDTAVYYCAAFGYYNFGYYYWGQGSQVTVSS | high polyreactivity |
| QVQLVESGGGLFQAGGSLRLSCAASGSIFSWNDMGWYRQAPGKERELVAAINWNGGSTYYADSVKGRFTISRDNEKNSVYLQMNSLKPEYSEVYYCAAERSLYYVYSREYWGQGTQVTVSS | low polyreactivity |
| QVQLVESGGGLVQSGGSLRLSCAASGRIFSYYTIGWYRHEPGKEREIVAAITWSGGSTYYADSVKGRFTISRDNAKNTVFLQLNRLKPEDTAVYYCNRVAPHDLRNRQEDNYWGQGTQVTVSS | low polyreactivity |
| QVQLVESGGGLVQAGGSLRLSCADSGLTFGSNGMGWYRQAPGKERELVAAISRGGSTSYAVSVKGRFTISRDNAKNTVYLQMNSLKPEDTAVYYCAARSYRYSYRYRAFDYWGQGSQVTVSS | high polyreactivity |
| QVQLVESGGGLVQAGGSLRLKCAASGSTFRPYAMGWYRQAPGKERELVARITGSGDSTYYADSVKGRFTISRDNAKITVYLQINSLKPEDNAVYYCAREFDYSLSGFDYWGQGTQVTVSS | low polyreactivity |
| QVQLVESGGGLVQAGGSLRLSCAASGSTFISYAMGWYRQAPGKEREWVAAISRRGDSTYYADSVKGRFTISRDNAKNTVYLQMKSLKPEDTAVYYCAADVSGDKGSIHMNYWGQGTQVTVSS | low polyreactivity |
| QVQLVESGGGLVQAGGSLRLSCAASGRIFAWYAMGWYRQSPGKESELVAAISDSGGSTYYADSVKGRFTISRDNAKNTVYLQMNSLKPEDTAVYYCAADQVVYSAYWSDHYDYWGQGTQVTVSS | low polyreactivity |

| Sequence | polyreactivity (PSR sort gate) |
| --- | --- |
| QVQLVESGGGLVQAGGSLRLSCASSGISFRRNAMGWYRQAPGKERELVAISTICGSTYYADSVNGRFTIARDNAKNTVYLQMNTLKPEDTAVYYCAAEGKSTGVYLDGGEGFAYDYWGQGTQVTVSS | low polyreactivity |
| QVQLVESGGGLVQAGGSLRLSCAASGNTFPTYAMGWYRQAHGKERELVAAINKRGSNTYYADSVKGRFTISRDNAKNTVYLQMNSLKPEDTADYYARAAGEYDYWGQGTQVTVSS | high polyreactivity |
| QGQLVESGGGLVQAGGSLSLSCAASGSIFPVYAMGWYRQAPGTEREFVARIRFSGGRTYYADSVQGRFTISRDNAKNTVYLQMNSLKPEDTAVYYCAKAQYRGRYGYWGQGTQVTVSS | high polyreactivity |
| QVQLVESGAGLVQAGGSLRLSCAASGSTFVINAMGWYRQPPGKEREFVADIDYRGGSTNYADSVKGRFTISHDNAKNTFYLQMNSLKPEDTAVYYCAAARVTIRSSHWSVDYWGQGTQVTVSS | low polyreactivity |
| QVQLVESGGGLVQAGGSLRLSCAASGNTFDYYDMGWYSQAPGKERELVAAGSGGSTYYADSVKGRFTISRDNAKHTVYLQMNSLKPEDTAVYYCAARDRYYFGGMYYWGQGTQVTVSS | low polyreactivity |
| QVQLVESGGGLVQAGGSLRLSCAASGNIFESYGMGWYRQAPGKERELVATINTSSGSTYYADSVKGRFTISRDNAKNTVYLQMNILKPEDTAVYYCAAEWYPYPWGYGYWGQGTQVTVSS | low polyreactivity |
| QVQLVESGGGLVQAGGSLRLSCAASGRIFLHNAMGWYRQAPGKERELVAAITSGGNTNYADSVKGRFTISRDNAKNTVYLQMNSLKPEDTAVYYCATVGKVHHRLVAMDYWGQGTQVTVSS | low polyreactivity |
| QVQLVESGGGLVQAGGSLRLSCAASGSTFVYNAMGWYRQAPGKERELVAAIRTTGTGTYYADSVKGRFTISRDNAKNTVYLQMNSLKPEDTAVYYCATDYNYWKLDFGYWGQGTQVTVSS | high polyreactivity |
| QVQLVESGGCLVQAGGSLRLSCAATGRTFHGYAMGWYRQAPGKERELVAAITSSGARTYYADSVKGRFTISRDNAKNTVYLQMNSLKPEDTAVYYCAKRGKQYRKMNYWGQGTQVTVSS | high polyreactivity |
| QVQLVESGGGIVQAGGRLRLSCAASGSIFYYYAKGWYRQAPGTERELVASINSGVSTYYADSVKGRFTNSRDNAKNTVYLQMNSLKPVDTAVYYCAAPGHNLYGSWFSWTPDTYDYWGQGNQVTVSS | low polyreactivity |
| QVQLVESGGGLVHAGGSLRLSCAASGLTFVNYAMGWYRQAPGKERELVATISKTGGSTYYADSVKGRFTISRDNAKNTVFLQMNSLKPEDTAVYYCAVDAYYYKWYDYWGQGTQVSVSS | high polyreactivity |
| QDHLVESGRGLVQAGGSLRLSCAASGSIFPSYAMVWNRQAPGKERDLVDSITTSGGSTYYADSVKGRFTISRDNAKNTVYLQMNSLKPEDTAVYYCNARRYYYSWGREGGYWGQGTQVTVSS | low polyreactivity |
| QVQLQESGGGLVQAGGSLRLSCAASGPISRRSTMGWNRQAPGKERELVTAITRGTNTNYADSVKGRFTISRDNAKNTEYLQMNSLKPVDTAVYYCAAYGVLKPSRGDAVFHRYWGQGTQVTVSS | low polyreactivity |
| QGQLVESGGGLVQAGGRLRLSCAATGLTFAKNAMGWYRQAPGKEREMFAAIRSGDDTTYADSVKGRFTISRDNAKNTVYLQMNSLKPEDSAEYYCAARYYRTWDGRFGYWGQGTQVTVSS | high polyreactivity |
| QVQLVESGGGVVQAGGSLRLSCAASGRTFSYYAMGWYRQSPGKERELVATISYSTGNTNYADSVKGRFTISRDNAKNTVYLQMNSLKPEDTAVYYCAADFSPFVGETYWKYDYWGQGTQVTVSS | low polyreactivity |
| QVQLVESGGGLVQAGGSLRLSCAASGFTFPDYAMGWYRQAPGKERELVAAISSDGSTYYADSVKGRFTISRDNAKNTVYLQMNSLKPEDTAVYYCAAYVVWLYGYDYWGQGTKVTVSS | low polyreactivity |
| QVQLVESGGGLVQAGGSLRLSCAASGRTFSGYAMGWYRQAPGKERELVAAINYSDGSTYYADSVKGRFTISRDNAKNTVYLQMNSLKPEDTAVYYCNKVYRYVRYAYDYWGQGTQVTVSS | high polyreactivity |
| QVQLVESGGGLVQAGGILRLSCAPYGSIFSQNAMGWYRQAPGKERELVAAISSSGTRTYYADSVKARFTISRDNAQNTVYLQMNSLKPEDTAVYYSNKVHFLPRYFLRSDYWGQGTQVTVSS | high polyreactivity |
| QVQLVESGGGLVQAGGSLRLSCAASGFIFTNVMGWYRQAPGKERELVASISSGGRTYYADSVKGRFTISRDNAKNTVYLQLNSLKPEDTAVYYCAKKKLLSVPARGYDYVYYWGQGTQVTVSS | high polyreactivity |
| QVQLVESGGGIVQAGGSLRLSCAASGFTFEKNAMGWYRQAPGKERELVAAISRGGSTYADSVKGRFRISRDNAKNTVYLQMNSLKPEDTAVYYCAADTVYIFSSAINGEFGYWGQGTQVTVSS | low polyreactivity |
